This is an account of results in the Immune Epitope Database (IEDB).

As usually defined, the Kd is the free concentration of one partner at which half of the binding sites on the other are occupied at equilibrium, for simple one-to-one binding.

One experiment deals with HLA-B*08:01. As to the kind of experiment: IEDB peptide-MHC binding, purified MHC/competitive/radioactivity; filed as Kd, often an IC50 or EC50 that approximates it; ≥ and ≤ were set here for values at or beyond the usual limits of such assays.
Another experiment has as its target HLA-A*32:01. The description is as above. The note with it: source organism: Vaccinia virus WR.
Another experiment concerns the target HLA-B*58:01. The experiment can be described thus: IEDB peptide-MHC binding, purified MHC/direct/fluorescence; filed as Kd, often an IC50 or EC50 that approximates it; ≥ and ≤ were set here for values at or beyond the usual limits of such assays. The note with it: source organism: Giardia lamblia ATCC 50803.
The target of a further experiment is HLA-B*57:01. The experiment is described as above. To be noted: source organism: Giardia lamblia ATCC 50803.
Another experiment deals with HLA-B*54:01. As to the kind of experiment: IEDB peptide-MHC binding, purified MHC/competitive/radioactivity; filed as Kd, often an IC50 or EC50 that approximates it; ≥ and ≤ were set here for values at or beyond the usual limits of such assays.
The next experiment addresses HLA-B*07:02. The experiment is described as above.
The next experiment deals with HLA-B*35:01. The description is as above.
The next experiment has as its target HLA-B*51:01. Described as above.
The target of a further experiment is HLA-B*53:01. The description is as above.
The next experiment has as its target HLA-A*68:02. The experiment is described as above.
The next experiment deals with HLA-B*15:01. The experiment is described as above.
The target in another experiment is HLA-A*02:03. Described as above.
A further experiment concerns the target HLA-A*02:06. Described as above.
Another experiment has as its target HLA-A*02:01. Described as above. The note with it: source organism: Vaccinia virus WR.
Another experiment deals with HLA-A*02:02. The experiment is described as above. To be noted: source organism: Vaccinia virus WR.
The target of another experiment is HLA-A*23:01. Described as above. The note with it: source organism: Dengue virus 3 Martinique/1243/1999.
The next experiment addresses HLA-A*01:01. The experiment is described as above. The note with it: source organism: Dengue virus 3 Martinique/1243/1999.
Where [1] appears, read: source organism: Vaccinia virus WR.
[2] abbreviates: source organism: SARS coronavirus Tor2.
The mark [3] stands for this setting: source organism: Dengue virus 1 Brazil/97-11/1997.
Setting [4] is: source organism: Dengue virus 3 Martinique/1243/1999.
Setting [5] is: source organism: Dengue virus 4 Philippines/H241/1956.
The mark [6] stands for this setting: source organism: Mammarenavirus juninense.
Where [7] appears, read: source organism: Dengue virus 2 Jamaica/1409/1983.
Setting [8] is: source organism: Mammarenavirus machupoense.
[9] abbreviates: source organism: Triticum aestivum.

A value given as a limit tells only on which side of the number the result lay.

Take MAMFYAHAL: the figures for the dissociation constant Kd with HLA-B*08:01 (setting [1]) and with HLA-A*32:01 were 1.15 nM and 12500 nM, respectively.

For the sequence RTRPPPCPH, the dissociation constant Kd is not below 20000 nM with HLA-B*58:01 and 935 nM in the experiment with HLA-B*57:01.

Consider FPPTSFGPLV, for which the dissociation constant Kd was 1260 nM with HLA-B*54:01 (setting [2]); 2080 nM in the experiment with HLA-B*07:02 (setting [2]); not below 24700 nM in the experiment with HLA-B*35:01 (setting [2]); 6260 nM with HLA-B*51:01 (setting [2]); 4860 nM in the experiment with HLA-B*53:01 (setting [2]).

For the sequence NTTANISLTA, the dissociation constant (Kd) with HLA-A*68:02 (setting [3]) was 44.6 nM.

For the sequence RSIRKFNTM, the dissociation constant (Kd) in the experiment with HLA-B*08:01 (setting [1]) came to 16.9 nM; with HLA-B*15:01 (setting [1]), 4.38 nM.

Consider MTATPPGTA, for which the equilibrium dissociation constant (Kd) with HLA-A*68:02 (setting [4]) was determined as 35.2 nM.

On to ETQHGTTVV, for which, in the experiment with HLA-A*68:02 (setting [5]), the Kd was found to be 8.6 nM.

Take SAYTALFSGV: the Kd came out at 7.14 nM with HLA-A*02:03 (setting [4]), 9.19 nM in the experiment with HLA-A*68:02 (setting [4]) and 1.16 nM with HLA-A*02:06 (setting [4]).

YVNAILYQI: the Kd with HLA-A*02:01 was 1430 nM; with HLA-A*02:02, 2050 nM; with HLA-A*02:03 (setting [1]) it was 9940 nM; in the experiment with HLA-A*68:02 (setting [1]) it was 1860 nM; with HLA-A*02:06 (setting [1]), 1980 nM.

Turning to LAGPMVAGGL, the Kd with HLA-B*08:01 (setting [5]) was 7750 nM.

Regarding AGRRSVSGDL, the equilibrium dissociation constant (Kd) in the experiment with HLA-B*08:01 (setting [3]) came out at 9260 nM.

As for MPGVLSYVV, the equilibrium dissociation constant (Kd) with HLA-B*54:01 (setting [6]) is 0.507 nM; with HLA-B*07:02 (setting [6]), 1030 nM; with HLA-B*35:01 (setting [6]), 22.2 nM; with HLA-B*51:01 (setting [6]) it was 208 nM; with HLA-B*53:01 (setting [6]) it was 187 nM.

Take ETWNRQDLLV: the Kd in the experiment with HLA-A*68:02 (setting [3]) stood at 17 nM.

As to AKNPNRFVI, the Kd with HLA-B*54:01 (source organism: Variola virus) is not below 78100 nM; with HLA-B*07:02 (source organism: Variola virus), 11900 nM; with HLA-B*35:01 (source organism: Variola virus) it was not below 77400 nM; with HLA-B*51:01 (source organism: Variola virus), not below 77400 nM; with HLA-B*53:01 (source organism: Variola virus) it was not below 78100 nM.

FPLNSKVKVI: the equilibrium dissociation constant (Kd) in the experiment with HLA-B*54:01 (setting [2]) is 927 nM; in the experiment with HLA-B*07:02 (setting [2]) it was not below 33400 nM; with HLA-B*35:01 (setting [2]), not below 29400 nM; with HLA-B*51:01 (setting [2]), 4710 nM; in the experiment with HLA-B*53:01 (setting [2]), 1070 nM.

Take DPVYISQFSY: the equilibrium dissociation constant (Kd) is not below 38600 nM in the experiment with HLA-B*54:01 (setting [1]); not below 69600 nM with HLA-B*07:02 (setting [1]); 928 nM in the experiment with HLA-B*35:01 (setting [1]); not below 69600 nM in the experiment with HLA-B*51:01 (setting [1]); 10500 nM in the experiment with HLA-B*53:01 (setting [1]).

Regarding WLGARYLEF, the Kd was 82.7 nM with HLA-A*23:01, 2.26 nM with HLA-B*08:01 (setting [4]) and 158 nM with HLA-B*15:01 (setting [4]).

MTDDIGMGV: the dissociation constant (Kd) was 5.13 nM in the experiment with HLA-A*68:02 (setting [7]) and 7.05 nM with HLA-A*02:06 (setting [7]).

With STANVSLAAI, the Kd with HLA-A*01:01 was not below 47800 nM; with HLA-A*68:02 (setting [4]), 2.12 nM.

On to LPTSITVPV, for which the dissociation constant Kd with HLA-B*54:01 (setting [8]) came to 4.01 nM; with HLA-B*07:02 (setting [8]), 67.1 nM; with HLA-B*35:01 (setting [8]), 3.55 nM; with HLA-B*51:01 (setting [8]), 1970 nM; in the experiment with HLA-B*53:01 (setting [8]) it was 72.5 nM.

Take FIAFLRFLAI: the results for the Kd in the experiment with HLA-A*68:02 (setting [3]), with HLA-A*02:06 (setting [3]) and with HLA-B*53:01 (setting [3]) were 417 nM, 14.9 nM and 1320 nM, respectively.

In the case of IINKRKKTSL, in the experiment with HLA-B*08:01 (setting [4]), the equilibrium dissociation constant (Kd) came to 83.9 nM.

With ALRFFLQRL, the Kd in the experiment with HLA-B*08:01 (setting [1]) was 1990 nM.

As to QPFPSQQPYL, the dissociation constant Kd was found to be 10800 nM with HLA-B*54:01 (setting [9]); 17500 nM with HLA-B*07:02 (setting [9]); 433 nM in the experiment with HLA-B*35:01 (setting [9]); 10.3 nM with HLA-B*51:01 (setting [9]); 8540 nM with HLA-B*53:01 (setting [9]).

For the sequence RRKRSVTMLL, the equilibrium dissociation constant (Kd) with HLA-B*08:01 (setting [3]) is 3650 nM.

As to RKSGKKVIQL, the Kd with HLA-B*08:01 (setting [5]) is 301 nM.

For the sequence TPTIEDDKIV, the Kd with HLA-B*54:01 (setting [1]) was 3150 nM; with HLA-B*07:02 (setting [1]), 19700 nM; with HLA-B*35:01 (setting [1]), not below 52200 nM; with HLA-B*51:01 (setting [1]), 10100 nM; in the experiment with HLA-B*53:01 (setting [1]) it was not below 29000 nM.
